Five molecules from article PMC9482650, “Quantitative fragmentomics allow affinity mapping of interactomes” (Nature Communications, 2022) can be followed below.

One may read the pKd as the negative decadic logarithm of the Kd, by convention in mol/L.

Among the targets are MAGI1_3, Q96QZ7; PDZD9, Q8IXQ8; PREX1_1, Q8TCU6; LMO7, Q8WWI1; ARHGEF12, Q9NZN5-2; CNKSR3, Q6P9H4; DLG5_2, Q8TDM6; NHERF2_1, Q15599; PTPN13_2, Q12923; IL16_2, Q14005.
Assay in all cases: holdup assay
Holding throughout (parameters): key: below the threshold = too weak to quantify, mostly under pKd 3.1 to 4
Common to all, as to conditions: plain residues with an end cap or a label only (N-terminal biotin on a linker: ttds)

A further assay has as its target T1, USH1C_2, Q9Y6N9.
T1 sequence (Q9Y6N9 206-303, limits assumed, looked up): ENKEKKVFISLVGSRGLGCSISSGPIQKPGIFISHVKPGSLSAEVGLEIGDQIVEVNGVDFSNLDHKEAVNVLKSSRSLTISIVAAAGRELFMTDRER

Another assay concerns the target T2, TJP3_2, O95049.
T2 sequence (O95049 190-282, limits assumed, looked up): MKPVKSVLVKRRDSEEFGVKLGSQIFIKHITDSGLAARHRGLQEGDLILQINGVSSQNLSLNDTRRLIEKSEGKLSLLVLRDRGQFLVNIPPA

The target of a further assay is T3, APBA3_2, O96018.
T3 sequence (O96018 480-570, limits assumed, looked up): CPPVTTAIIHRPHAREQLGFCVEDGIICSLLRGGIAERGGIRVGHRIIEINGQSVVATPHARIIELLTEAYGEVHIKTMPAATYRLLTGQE

The target of a further assay is T4, SNTG1, Q9NSN8.
T4 sequence (Q9NSN8 52-150, limits assumed, looked up): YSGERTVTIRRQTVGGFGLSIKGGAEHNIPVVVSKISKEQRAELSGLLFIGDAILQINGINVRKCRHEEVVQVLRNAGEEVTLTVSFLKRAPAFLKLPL

Another assay concerns the target T5, PDZD2_3, O15018.
T5 sequence (O15018 581-682, limits assumed, looked up): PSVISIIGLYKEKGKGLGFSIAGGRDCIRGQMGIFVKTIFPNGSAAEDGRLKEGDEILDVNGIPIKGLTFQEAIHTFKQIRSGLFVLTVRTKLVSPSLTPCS

A further assay deals with T6, NHERF3_2, Q5T2W1.
T6 sequence (Q5T2W1 129-225, limits assumed, looked up): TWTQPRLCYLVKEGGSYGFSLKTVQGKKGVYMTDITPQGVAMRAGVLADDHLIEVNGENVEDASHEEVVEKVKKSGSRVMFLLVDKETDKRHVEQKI

The next assay has as its target T7, DVL1, O14640.
T7 sequence (O14640 246-333, limits assumed, looked up): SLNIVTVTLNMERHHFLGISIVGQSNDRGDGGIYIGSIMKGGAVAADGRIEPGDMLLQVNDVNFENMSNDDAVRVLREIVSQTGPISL

A further assay has as its target T8, SHANK3, Q9BYB0.
T8 sequence (Q9BYB0 641-750, limits assumed, looked up): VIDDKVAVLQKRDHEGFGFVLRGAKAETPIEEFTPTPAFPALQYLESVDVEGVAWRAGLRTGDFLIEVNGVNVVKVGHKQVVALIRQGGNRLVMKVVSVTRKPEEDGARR

The target of the next assay is T9, PTPN13_5, Q12923.
T9 sequence (Q12923 1877-1975, limits assumed, looked up): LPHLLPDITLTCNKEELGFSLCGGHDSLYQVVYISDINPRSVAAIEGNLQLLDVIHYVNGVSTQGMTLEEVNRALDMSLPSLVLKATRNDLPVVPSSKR

The target of the next assay is T10, PTPN13_4, Q12923.
T10 sequence (Q12923 1783-1878, limits assumed, looked up): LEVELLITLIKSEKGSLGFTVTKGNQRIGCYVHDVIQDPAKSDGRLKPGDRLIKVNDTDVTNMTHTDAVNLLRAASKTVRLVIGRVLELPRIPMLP

Another assay concerns the target T11, PDZD2_1, O15018.
T11 sequence (O15018 80-192, limits assumed, looked up): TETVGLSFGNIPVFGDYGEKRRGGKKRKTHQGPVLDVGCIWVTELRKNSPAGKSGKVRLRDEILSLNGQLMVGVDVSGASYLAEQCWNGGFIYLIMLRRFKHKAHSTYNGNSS

The target of a further assay is T12, SHROOM3, Q8TF72.
T12 sequence (Q8TF72 20-120, limits assumed, looked up): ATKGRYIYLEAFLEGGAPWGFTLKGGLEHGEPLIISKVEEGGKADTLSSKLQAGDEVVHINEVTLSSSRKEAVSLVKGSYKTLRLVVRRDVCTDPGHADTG

The next assay deals with T13, NHERF1_2, O14745.
T13 sequence (O14745 149-244, limits assumed, looked up): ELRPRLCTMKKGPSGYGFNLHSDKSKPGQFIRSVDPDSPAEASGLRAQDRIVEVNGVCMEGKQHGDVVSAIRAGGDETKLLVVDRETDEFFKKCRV

Chain of IL16_2, Q14005 (Q14005 350-450): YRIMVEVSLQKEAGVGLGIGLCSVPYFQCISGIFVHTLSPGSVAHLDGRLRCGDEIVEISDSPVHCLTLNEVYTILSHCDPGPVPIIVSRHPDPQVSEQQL
Chain of DLG5_2, Q8TDM6 (Q8TDM6 714-800): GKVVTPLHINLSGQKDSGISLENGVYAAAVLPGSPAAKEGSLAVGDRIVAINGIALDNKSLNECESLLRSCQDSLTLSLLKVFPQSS
Chain of PREX1_1, Q8TCU6 (Q8TCU6 608-718): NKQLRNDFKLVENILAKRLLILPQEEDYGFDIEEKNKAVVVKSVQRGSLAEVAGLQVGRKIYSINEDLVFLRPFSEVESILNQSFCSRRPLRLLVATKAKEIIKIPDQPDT
Chain of NHERF2_1, Q15599 (Q15599 9-91): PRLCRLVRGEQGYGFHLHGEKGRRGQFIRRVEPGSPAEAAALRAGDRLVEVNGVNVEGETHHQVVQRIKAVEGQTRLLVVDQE
Chain of MAGI1_3, Q96QZ7 (Q96QZ7 638-725): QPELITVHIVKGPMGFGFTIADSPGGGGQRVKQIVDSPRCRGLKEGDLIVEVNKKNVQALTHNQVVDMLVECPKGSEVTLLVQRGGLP
Chain of PTPN13_2, Q12923 (Q12923 1363-1462): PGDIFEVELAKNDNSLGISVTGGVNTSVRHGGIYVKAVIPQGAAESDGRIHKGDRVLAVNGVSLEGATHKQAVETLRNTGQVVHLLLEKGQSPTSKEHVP
Chain of LMO7, Q8WWI1 (Q8WWI1 1037-1138): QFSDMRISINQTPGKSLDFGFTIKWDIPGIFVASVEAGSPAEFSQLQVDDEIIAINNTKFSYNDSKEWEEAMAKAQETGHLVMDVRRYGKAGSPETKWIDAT
Chain of ARHGEF12, Q9NZN5-2 (Q9NZN5 other isoform, or with tags, fused parts or gaps): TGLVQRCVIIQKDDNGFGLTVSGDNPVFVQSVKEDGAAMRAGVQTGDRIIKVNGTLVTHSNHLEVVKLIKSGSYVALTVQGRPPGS
Chain of PDZD9, Q8IXQ8 (Q8IXQ8 23-120): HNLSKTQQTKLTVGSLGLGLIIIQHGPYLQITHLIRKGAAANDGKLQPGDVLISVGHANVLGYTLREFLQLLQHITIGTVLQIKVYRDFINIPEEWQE
Chain of CNKSR3, Q6P9H4 (Q6P9H4 203-303): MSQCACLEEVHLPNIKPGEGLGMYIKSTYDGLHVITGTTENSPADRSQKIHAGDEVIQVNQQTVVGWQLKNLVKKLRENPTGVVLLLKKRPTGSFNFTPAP

For QPGTPTRTAV [MAP2K2, P36507], the negative logarithm of the Kd (pKd) result in the assay with USH1C_2, Q9Y6N9 is recorded as “below the threshold”; in the assay with TJP3_2, O95049, “below the threshold”; with MAGI1_3, Q96QZ7 it was “below the threshold”; with PDZD9, Q8IXQ8, “below the threshold”; with APBA3_2, O96018 it was “below the threshold”; with PREX1_1, Q8TCU6, “below the threshold”. The pKd in the assay with SNTG1, Q9NSN8 was 3.66; with PDZD2_3, O15018, “below the threshold”; with LMO7, Q8WWI1, “below the threshold”; with NHERF3_2, Q5T2W1 it was “below the threshold”; with DVL1, O14640, “below the threshold”; with SHANK3, Q9BYB0, “below the threshold”. The pKd with ARHGEF12, Q9NZN5-2 is 3.66; in the assay with CNKSR3, Q6P9H4, 4.05; with PTPN13_5, Q12923 it was “below the threshold”; in the assay with DLG5_2, Q8TDM6, “below the threshold”; in the assay with NHERF2_1, Q15599 it was “below the threshold”; with PTPN13_4, Q12923, “below the threshold”. Also, the pKd entry in the assay with PDZD2_1, O15018 is recorded as “below the threshold”; with SHROOM3, Q8TF72, “below the threshold”; in the assay with NHERF1_2, O14745, “below the threshold”; with PTPN13_2, Q12923, “below the threshold”; in the assay with IL16_2, Q14005, “below the threshold”.

With DEDQHTQITKV [PTEN, P60484], the negative logarithm of the Kd (pKd) entry with TJP3_2, O95049 is “below the threshold”; with MAGI1_3, Q96QZ7, 4.5; with APBA3_2, O96018 it was “below the threshold”; with PREX1_1, Q8TCU6, “below the threshold”; with SNTG1, Q9NSN8, 4.01; with PDZD2_3, O15018, “below the threshold”. Further, the pKd entry in the assay with LMO7, Q8WWI1 is “below the threshold”; in the assay with NHERF3_2, Q5T2W1, “below the threshold”; with DVL1, O14640, “below the threshold”; with ARHGEF12, Q9NZN5-2, 4.2; with CNKSR3, Q6P9H4, “below the threshold”; in the assay with PTPN13_5, Q12923 it was “below the threshold”. Moreover, the pKd entry was “below the threshold” with DLG5_2, Q8TDM6; “below the threshold” with NHERF2_1, Q15599; “below the threshold” with PDZD2_1, O15018; “below the threshold” with NHERF1_2, O14745; 3.81 in the assay with PTPN13_2, Q12923; “below the threshold” with IL16_2, Q14005.

CLDTSRETDL [KCNA5, P22460]: the negative logarithm of the Kd (pKd) entry with USH1C_2, Q9Y6N9 is reported as “below the threshold”; with TJP3_2, O95049 it was “below the threshold”; with MAGI1_3, Q96QZ7, “below the threshold”; in the assay with PDZD9, Q8IXQ8, “below the threshold”; with APBA3_2, O96018, “below the threshold”; with PREX1_1, Q8TCU6, “below the threshold”. For the same molecule, the pKd with SNTG1, Q9NSN8 was 4.6; in the assay with PDZD2_3, O15018 it was “below the threshold”; with LMO7, Q8WWI1, “below the threshold”; in the assay with NHERF3_2, Q5T2W1, “below the threshold”; with DVL1, O14640 it was “below the threshold”; with SHANK3, Q9BYB0 it was “below the threshold”. Further, the pKd with ARHGEF12, Q9NZN5-2 is 4.32; with CNKSR3, Q6P9H4 it was “below the threshold”; in the assay with PTPN13_5, Q12923, “below the threshold”; with DLG5_2, Q8TDM6 it was “below the threshold”; with NHERF2_1, Q15599 it was “below the threshold”; with PTPN13_4, Q12923, “below the threshold”. The pKd entry in the assay with PDZD2_1, O15018 is reported as “below the threshold”; with SHROOM3, Q8TF72, “below the threshold”; with NHERF1_2, O14745 it was “below the threshold”; with PTPN13_2, Q12923 it was “below the threshold”; with IL16_2, Q14005, “below the threshold”.

With TGDTLEKFVEGL [CBP, Q92793], the negative logarithm of the Kd (pKd) is 3.95 in the assay with TJP3_2, O95049; “below the threshold” with MAGI1_3, Q96QZ7; 3.95 with APBA3_2, O96018; 4.22 with PREX1_1, Q8TCU6; “below the threshold” with SNTG1, Q9NSN8; “below the threshold” in the assay with PDZD2_3, O15018. For the same molecule, the pKd result is recorded as “below the threshold” with NHERF3_2, Q5T2W1; “below the threshold” in the assay with DVL1, O14640; “below the threshold” with SHANK3, Q9BYB0; “below the threshold” with ARHGEF12, Q9NZN5-2; “below the threshold” with CNKSR3, Q6P9H4; “below the threshold” with PTPN13_5, Q12923. Besides, the pKd result in the assay with DLG5_2, Q8TDM6 was “below the threshold”; with NHERF2_1, Q15599 it was 3.84; with PDZD2_1, O15018, “below the threshold”; with SHROOM3, Q8TF72 it was “below the threshold”; with NHERF1_2, O14745, 3.96; with PTPN13_2, Q12923, “below the threshold”. The pKd entry with IL16_2, Q14005 is “below the threshold”.

Turning to RRVRKLPSTTL [RPS6KA1, Q15418], the pKd result was “below the threshold” with USH1C_2, Q9Y6N9; “below the threshold” with TJP3_2, O95049; “below the threshold” with MAGI1_3, Q96QZ7; “below the threshold” with PDZD9, Q8IXQ8; “below the threshold” with APBA3_2, O96018; 3.88 with SNTG1, Q9NSN8. Moreover, the negative-log Kd (pKd) entry is “below the threshold” with PDZD2_3, O15018; “below the threshold” with LMO7, Q8WWI1; “below the threshold” with NHERF3_2, Q5T2W1; “below the threshold” with DVL1, O14640; 4.14 in the assay with SHANK3, Q9BYB0; 5.45 with ARHGEF12, Q9NZN5-2. The pKd entry with CNKSR3, Q6P9H4 was “below the threshold”; with PTPN13_5, Q12923, 3.84; with DLG5_2, Q8TDM6 it was “below the threshold”; with NHERF2_1, Q15599, “below the threshold”; in the assay with PTPN13_4, Q12923, “below the threshold”; with PDZD2_1, O15018, “below the threshold”. Besides, the pKd entry was “below the threshold” in the assay with SHROOM3, Q8TF72; “below the threshold” with NHERF1_2, O14745; “below the threshold” in the assay with PTPN13_2, Q12923; “below the threshold” with IL16_2, Q14005.
